Numbered stars: 1 amine (or outer) side, 2 acyl side, 3 side chain; on linkers, the order of the positions; unused ones are H or OH. Square brackets hold non-standard residues; d marks the D form. Ends that are not written are not given here. * marks the point of attachment. Pro(trans-4-NH2) = O=C([C@@H]1C[C@@H](N[*:3])CN1[*:1])[*:2]; Sni = (S)-nipecotic acid, O=C([C@H]1CCCN([*:1])C1)[*:2]; 5121 = 1-propyl-butyl-amine, CCCC(CCC)N*; dGly(2-thienyl) = N[C@@H](C(=O)O)c1cccs1; Gly(2-thienyl) = N[C@H](C(=O)O)c1cccs1; Butanoyl(4-cHex) = O=C(CCCC1CCCCC1)*; NMeR = CN[C@@H](CCCNC(=N)N)C(=O)O; dDap(Me2) = CN(C)C[C@@H](N)C(=O)O; Hyp = O=C(O)[C@@H]1C[C@@H](O)CN1; NMeF = CN[C@@H](Cc1ccccc1)C(=O)O; NMeI = CC[C@H](C)[C@H](NC)C(=O)O; tBuAla = CC(C)(C)C[C@H](N)C(=O)O; NMeD = CN[C@@H](CC(=O)O)C(=O)O; NMeL = CN[C@@H](CC(C)C)C(=O)O; BB725 = not defined here; Octanoyl = CCCCCCCC(=O)*; Api = NC1(C(=O)O)CCNCC1; Che = not defined here; Occ = octanoic acid A value given as a limit tells only on which side of the number the result lay.

The text below walks through data of patent US9187525B2, “Methods of treating ophthalmic diseases using NPR-B agonists” (Shire Orphan Therapies GmbH, dated 2015).

B1: JAL-1596 (peptide)
peptide: Octanoyl-[Sni]FLL[Hyp]IDP[Che]
modifications: not fully specified (some residues); printed as Occ-Sni-Phe-leu-Leu-Hyp-Ile-Asp-Pro-Che; reading uncertain
B2: JAL-1574 (peptide)
peptide: [Occ]XFXLXXDRI-NH2
modifications: not fully specified (residues 2, 4, 6, 7); printed as Occ-Sni-Phe-nml-Leu-Hyp-Nml-Asp-Arg-Ile-NH2
B3: JAL-1595 (peptide)
peptide: Octanoyl-[Sni]FLL[Hyp][tBuAla]DP[Che]
modifications: not fully specified (some residues); printed as Occ-Sni-Phe-leu-Leu-Hyp-Npg-Asp-Pro-Che; reading uncertain
B4: JAL-1597 (peptide)
peptide: Octanoyl-[Sni][NMeF][dL]L[Hyp][NMeL]DP[Che]
modifications: not fully specified; printed as Occ-Sni-Nmf-leu-Leu-Hyp-Nml-Asp-Pro-Che; reading uncertain
B5: JAL-1513 (peptide)
peptide: [Occ][Sni]FLL[Hyp][NMeL]DP[5121]
modifications: not fully specified (residue 4); printed as Occ-Sni-Phe-leu-Leu-Hyp-Nml-Asp-Pro-5121
B6: JAL-1594 (peptide)
peptide: Octanoyl-[Sni]FLL[Hyp][NMeL]VP[Che]
modifications: not fully specified (some residues); printed as Occ-Sni-Phe-leu-Leu-Hyp-Nml-Val-Pro-Che; reading uncertain
B7: JAL-1512_02 (peptide)
peptide: [Occ][Sni]FLL[Hyp][NMeL]DP[Che]
modifications: not fully specified (residue 4); printed as Occ-Sni-Phe-leu-Leu-Hyp-Nml-Asp-Pro-Che; reading uncertain
B8: JAL-1556 (peptide)
peptide: [Occ][dA]F[dL]L[Hyp][NMeL][BB725]RI-NH2
modifications: reading uncertain; also: printed as Occ-ala-Phe-leu-Leu-Hyp-Nml-(BB725)-Arg-Ile-NH2

This experiment deals with T1, natriuretic peptide receptor-B (human).
T1 chain: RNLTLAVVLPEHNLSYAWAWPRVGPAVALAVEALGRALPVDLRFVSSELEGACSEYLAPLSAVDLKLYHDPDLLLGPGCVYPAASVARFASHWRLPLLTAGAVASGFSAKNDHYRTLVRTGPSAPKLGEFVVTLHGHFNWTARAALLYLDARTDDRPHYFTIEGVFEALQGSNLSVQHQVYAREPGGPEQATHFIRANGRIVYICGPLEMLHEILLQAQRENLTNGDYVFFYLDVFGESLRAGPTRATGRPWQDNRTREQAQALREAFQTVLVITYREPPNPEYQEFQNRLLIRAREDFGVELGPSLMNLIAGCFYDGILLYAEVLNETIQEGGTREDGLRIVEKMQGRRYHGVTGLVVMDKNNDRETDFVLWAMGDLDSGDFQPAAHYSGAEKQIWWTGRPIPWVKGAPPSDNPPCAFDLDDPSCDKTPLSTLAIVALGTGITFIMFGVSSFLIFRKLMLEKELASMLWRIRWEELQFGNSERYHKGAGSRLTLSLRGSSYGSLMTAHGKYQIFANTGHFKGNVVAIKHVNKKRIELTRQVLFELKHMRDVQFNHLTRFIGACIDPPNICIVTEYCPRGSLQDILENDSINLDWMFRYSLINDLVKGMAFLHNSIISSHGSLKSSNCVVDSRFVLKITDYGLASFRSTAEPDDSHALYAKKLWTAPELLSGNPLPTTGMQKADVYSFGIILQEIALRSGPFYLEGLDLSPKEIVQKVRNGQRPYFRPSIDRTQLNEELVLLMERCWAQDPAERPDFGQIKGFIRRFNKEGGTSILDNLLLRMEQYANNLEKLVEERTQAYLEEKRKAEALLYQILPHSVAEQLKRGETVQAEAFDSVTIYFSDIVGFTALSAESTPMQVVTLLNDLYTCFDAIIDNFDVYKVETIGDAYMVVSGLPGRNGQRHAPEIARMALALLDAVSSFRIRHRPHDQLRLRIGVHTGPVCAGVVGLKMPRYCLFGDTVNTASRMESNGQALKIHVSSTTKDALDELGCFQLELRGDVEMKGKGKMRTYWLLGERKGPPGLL
In words: cell-based or functional assay.
Turning to [Occ][Sni][NMeF][dDap(Me2)]L[Hyp][NMeL]DRI-NH2 [JAL-1579], the “EC50 group, cGMP in GTM-3 cells” value was at most 1 µM.
To [Occ][Sni]F[dDap(Me2)]L[Hyp][NMeL]D[NMeR]I-NH2 [JAL-1576] belongs at most 1 µM; to B1, at most 5 µM; to B2, at most 15 µM.
In the case of [Occ][Sni]F[dL]L[Pro(trans-4-NH2)][NMeL]DP[Che] (reading uncertain; also: printed as Occ-Sni-Phe-leu-Leu-Tap-Nml-Asp-Pro-Che) [JAL-1568] it was at most 1 µM; in that of {Butanoyl(4-cHex)}-[dA][dA]FGLKLDRI-NH2 [JAL-0693], at most 15 µM.
For the molecule [Occ][Sni]F[dL]L[Pro(trans-4-NH2)][NMeL]DPI-NH2 [JAL-1559], the “EC50 group, cGMP in GTM-3 cells” value was at most 1 µM.
Consider [Occ][Sni]F[dL]L[Hyp][NMeL]D[NMeR]I-NH2 [JAL-1570], for which the “EC50 group, cGMP in GTM-3 cells” value was at most 5 µM.
Take [Occ][Sni]FGL[Pro(trans-4-NH2)][NMeL]DPI-NH2 [JAL-1560]: the “EC50 group, cGMP in GTM-3 cells” value was at most 5 µM.
In the case of B3 it was at most 1 µM; in that of [Occ][Sni]F[dDap(Me2)][NMeL][Hyp][NMeL]DRI-NH2 [JAL-1578], at most 5 µM; in that of [Occ][dA]F[dL]L[Hyp][NMeL][dGly(2-thienyl)]RI-NH2 [JAL-1558], at most 1 µM.
In the case of [Occ][dA]F[dL]L[Hyp][NMeL][Gly(2-thienyl)]RI-NH2 [JAL-1557] it was at most 15 µM; in that of [Occ][Sni]F[Api]L[Hyp][NMeL]DRI-NH2 [JAL-1555], at most 1 µM.
In the case of [Occ][Sni][NMeF][dL]L[Hyp][NMeL]DRI-NH2 [JAL-1573] it was at most 1 µM.
Regarding [Occ][Sni]F[dDap(Me2)]L[Hyp][NMeL]DPI-NH2 [JAL-1580], the “EC50 group, cGMP in GTM-3 cells” value was at most 1 µM.
In the case of [Occ][Sni]F[dDap(Me2)]L[Hyp][NMeL]DR[NMeI]-NH2 [JAL-1575] it was at most 15 µM; in that of [Occ][Sni]FLL[Hyp][NMeL]DRI-NH2 [JAL-1554], at most 5 µM; in that of {Butanoyl(4-cHex)}-[dP]FGLKLDRI-NH2 [JAL-0695], at most 15 µM.
To Octanoyl-[dP]FGLKLDRI-NH2 [JAL-0694] belongs at most 15 µM; to [Occ][Sni]F[dL][NMeL][Hyp][NMeL]DRI-NH2 [JAL-1572], at most 15 µM; to [Occ][Sni]F[dDap(Me2)]L[Hyp][NMeL][NMeD]RI-NH2 [JAL-1577], at most 15 µM.
In the case of B4, the “EC50 group, cGMP in GTM-3 cells” value is at most 1 µM.
In the case of B5 it was at most 15 µM; in that of B6, at most 5 µM.
To B7 belongs at most 1 µM; to [Occ][Sni]FAL[Hyp][NMeL]DRI-NH2 [JAL-1553], at most 15 µM.
On to [Occ][Sni]F[dL]L[Hyp][NMeL]DR[NMeI]-NH2 [JAL-1569], for which the “EC50 group, cGMP in GTM-3 cells” value is at most 1 µM.
To [Occ][Sni]F[Api]L[Pro(trans-4-NH2)][NMeL]DPI-NH2 [JAL-1561] belongs at most 1 µM; to B8, at most 1 µM.
